Experiments:
[1] = target: ectodomain of human syndecan-4 (natural isoform 2 of SDC-4) (human); assay: SEC-MALS
[2] = target: ectodomain of human syndecan-4 (natural isoform 2 of SDC-4) (human); assay: ion mobility mass spectrometry

“ectodomain of human syndecan-4 (natural isoform 2 of SDC-4) (domain or fragment)” gave a stoichiometry N [1] of 2 and a stoichiometry N [2] of 2.
